Experimental data: article PMC10388305, “Synthesis and Evaluation of a Monomethyl Auristatin E—Integrin αvβ6 Binding Peptide–Drug Conjugate for Tumor Targeted Drug Delivery” (Journal of Medicinal Chemistry, 2023)
Where two headings read alike, the source gives them in different places.

How the values were obtained:
[1] = Blocking biodistribution, paired DX3puroβ6/DX3puro model; type: in vivo, mice; details: female, athymic nude, mouse, iv, total radioactivity, 4 h p.i., DOTA-2 (50 mg/kg, 205 nmol) i.v. 10 min prior, γ-counter, mean ± SD, n = 2
Protocol: Aliquots of the formulated [^64Cu]PDC-1 in isotonic 0.9% saline (4.81–5.74 MBq, 1.7–2.1 μg, 0.26–0.31 nmol, 100 μL, pH 7.2) were injected i.v. as described above. Following the conscious uptake period, the mice were anesthetized (5% isoflurane), euthanized, and dissected (n ≥ 3/model/time point [4, 24, and 48 h]; the 48 h time point also included the imaging animals sacrificed after the PET scans). Tissues were collected, washed, weighed, and radioactivity measured in a γ-counter. Calibrated, decay-corrected radioactivity was expressed as the percentage of injected dose per gram of tissue (% ID/g). Data are reported as mean ± SD. The mean weights and standard deviation of the DX3puroβ6/DX3puro paired tumor model biodistribution mice were 24.3 ± 1.4 g at 4 h, 28.2 ± 2.9 g at 24 h, and 27.7 ± 2.6 g at 48 h. The mean weights and standard deviation of the BxPC-3 tumor model biodistribution mice were 25.1 ± 1.9 g at 4 h, 27.0 ± 1.1 g at 24 h and 27.1 ± 3.2 g at 48 h. For in vivo blocking studies, DOTA-2 (50 mg/kg, 205 nmol, 1.4 mg in 100 μL 0.9% saline) was injected i.v. into two animals/tumor model 10 min prior to [^64Cu]PDC-1. The animals were sacrificed after 4 h, tissues collected, washed, weighed, and radioactivity measured in a γ-counter. The mean weights and standard deviation for the blocking mice were 24.6 ± 0 and 27.9 ± 0.3 g for the DX3puroβ6/DX3puro paired and BxPC-3 tumor models, respectively.
Blocking biodistribution data of [64Cu]PDC-1 in paired DX3puroβ6/DX3puro and BxPC-3 tumor models.
Tumor Model DX3puroβ6/DX3puro BxPC-3
Table S6. Blocking biodistribution data of [ 64Cu]PDC-1 in paired DX3puroβ6/DX3puro and BxPC-3 tumor
models. Tissue uptake is expressed as the mean of the percentage of injected dose per gram of tissue ±
SD (n = 2/model, n/a = not applicable. P = 0.53 for DX3puroβ6 vs. DX3puro; P = 0.52 for BxPC-3 vs.

[2] = Serum stability in human serum; type: in vitro ADME; details: 37 °C, ethanol precipitation, radio RP-HPLC
Protocol: The serum stability of [^64Cu]PDC-1 was measured in both human and mouse serum at 37 °C at 1, 4, and 24 h.
Mouse serum or human serum (0.5 mL) was combined with an aliquot of [^64Cu]PDC-1 (≤25 μL, 3.9–4.7 MBq) and incubated at 37 °C. At each time point (1, 4, and 24 h), an aliquot (50–200 μL) was taken, proteins precipitated with absolute ethanol and removed by centrifugation at 1500g for 4 min. The ethanol solution was diluted with water (1 mL) and analyzed by RP-HPLC.

## CC[C@H](C)[C@@H]([C@@H](CC(=O)N1CCC[C@H]1[C@H](OC)[C@@H](C)C(=O)N[C@H](C)[C@@H](O)c1ccccc1)OC)N(C)C(=O)[C@@H](NC(=O)[C@H](C(C)C)N(C)C(=O)OCc1ccc(NC(=O)[C@H](CCCNC(N)=O)NC(=O)[C@@H](NC(=O)CCOCCOCCNC(=O)CCN2C(=O)CC(SC[C@H](NC(=O)CN3CCN(CC(=O)O)CCN(CC(=O)O)CCN(CC(=O)O)CC3)C(=O)NCCOCCOCCOCCOCCOCCOCCOCCOCCOCCOCCOCCOCCOCCOCCOCCOCCOCCOCCOCCOCCOCCOCCOCCOCCOCCOCCOCCOCCC(=O)N[C@@H](CC(N)=O)C(=O)N[C@@H](C)C(=O)N[C@H](C(=O)N3CCC[C@H]3C(=O)N[C@@H](CC(N)=O)C(=O)N[C@@H](CC(C)C)C(=O)N[C@@H](CCCNC(=N)N)C(=O)NCC(=O)N[C@@H](CC(=O)O)C(=O)N[C@@H](CC(C)C)C(=O)N[C@@H](CCC(N)=O)C(=O)N[C@H](C(=O)N[C@@H](CC(C)C)C(=O)N[C@@H](C)C(=O)N[C@@H](CCC(N)=O)C(=O)N[C@@H](CCCNC(=N)N)C(=O)N[C@H](C(=O)N[C@@H](C)C(=O)N[C@@H](CCCNC(=N)N)C(=O)N[C@H](C(=O)NCCOCCOCCOCCOCCOCCOCCOCCOCCOCCOCCOCCOCCOCCOCCOCCOCCOCCOCCOCCOCCOCCOCCOCCOCCOCCOCCOCCOCCC(N)=O)[C@@H](C)O)C(C)C)C(C)C)C(C)C)C2=O)C(C)C)cc1)C(C)C (some centres unmarked) [[^64Cu]PDC-1, metal not drawn]
[1]; DX3puro (αvβ6 −) tumor, read-out: Tumor (αvβ6 −) DX3puro uptake, blocked
  tissue uptake at 4 h: 0.42 ± 0.04 %ID/g
[1]; DX3puroβ6 (αvβ6 +) tumor, read-out: Tumor (αvβ6 +) DX3puroβ6 uptake, blocked
  tissue uptake at 4 h: 0.39 ± 0.04 %ID/g
[1]; blood, read-out: Blood uptake, blocked
  tissue uptake at 4 h: 0.08 ± 0.02 %ID/g
[1]; bone, read-out: Bone uptake, blocked
  tissue uptake at 4 h: 0.1 ± 0.03 %ID/g
[1]; brain, read-out: Brain uptake, blocked
  tissue uptake at 4 h: 0.02 %ID/g
[1]; gall bladder, read-out: Gall Bladder uptake, blocked
  tissue uptake at 4 h: 0.28 ± 0.4 %ID/g
[1]; heart, read-out: Heart uptake, blocked
  tissue uptake at 4 h: 0.17 ± 0.03 %ID/g
[1]; kidney, read-out: Kidney uptake, blocked
  tissue uptake at 4 h: 36.4 ± 5.43 %ID/g
[1]; large intestines, read-out: Large Intestines uptake, blocked
  tissue uptake at 4 h: 0.51 ± 0.1 %ID/g
[1]; liver, read-out: Liver uptake, blocked
  tissue uptake at 4 h: 1.39 ± 0.45 %ID/g
[1]; lung, read-out: Lung uptake, blocked
  tissue uptake at 4 h: 0.39 ± 0.09 %ID/g
[1]; muscle, read-out: Muscle uptake, blocked
  tissue uptake at 4 h: 0.04 %ID/g
[1]; pancreas, read-out: Pancreas uptake, blocked
  tissue uptake at 4 h: 0.08 ± 0.01 %ID/g
[1]; skin, read-out: Skin uptake, blocked
  tissue uptake at 4 h: 0.29 ± 0.02 %ID/g
[1]; small intestines, read-out: Small Intestines uptake, blocked
  tissue uptake at 4 h: 0.36 ± 0.02 %ID/g
[1]; spleen, read-out: Spleen uptake, blocked
  tissue uptake at 4 h: 0.19 ± 0.01 %ID/g
[1]; stomach, read-out: Stomach uptake, blocked
  tissue uptake at 4 h: 0.27 ± 0.06 %ID/g
[2]; 1 h
  remaining at 1 h: > 98%
[2]; 4 h
  remaining at 4 h: > 98%
[2]; 24 h
  remaining at 24 h: 89%
